Results: patent US20240124553A1

Experiments:
Test in all cases: flow cytometry, transfected 293T cells
[1] = biological target: CHIKV E2-6K-E1 envelope proteins (strain S27) with E2 G209A (Chikungunya virus strain S27) (UniProt Q8JUX5)
[2] = biological target: CHIKV E2-6K-E1 envelope proteins (strain S27) with E2 K189A (Chikungunya virus strain S27) (UniProt Q8JUX5)
[3] = biological target: CHIKV E2-6K-E1 envelope proteins (strain S27) with E2 K200A (Chikungunya virus strain S27) (UniProt Q8JUX5)
[4] = biological target: CHIKV E2-6K-E1 envelope proteins (strain S27) with E2 N202A (Chikungunya virus strain S27) (UniProt Q8JUX5)
[5] = biological target: CHIKV E2-6K-E1 envelope proteins (strain S27) with E2 N219A (Chikungunya virus strain S27) (UniProt Q8JUX5)
[6] = biological target: CHIKV E2-6K-E1 envelope proteins (strain S27) with E2 S182A (Chikungunya virus strain S27) (UniProt Q8JUX5)

Mxra8-Fc (mouse Mxra8 extracellular domain fused to mouse IgG2b Fc) (Fc fusion)
Binding Reactivity (% WT) [1]: 77.9 % WT | Binding Reactivity (% WT) [2]: 156 % WT | Binding Reactivity (% WT) [3]: 75.5 % WT | Binding Reactivity (% WT) [4]: 80.6 % WT | Binding Reactivity (% WT) [5]: 66.6 % WT | Binding Reactivity (% WT) [6]: 70.9 % WT
